{"source": "patent US20210388087A1", "about": "(Chugai, published 2021)", "binders": {"B1": {"name": "H183/L072 VL V94H (antibody, name in Kabat numbering, V domains shown)", "VH": "QVQLVESGGGLVQPGRSLRLSCAASGFTFSNAWMHWVRQAPGKGLEWVAQIKDKGNAYAAYYAPSVKGRFTISRDDSKNSIYLQMNSLKTEDTAVYYCHYVHYASASTVLPAFGVDAWGQGTTVTVSS", "VL": "DIVMTQSPLSLPVTPGEPASISCQASQELVHMNRNTYLHWYQQKPGQAPRLLIYKVSNRFPGVPDRFSGSGSGTDFTLKISRVEAEDVGVYYCAQGTSHPFTFGQGTKLEIK"}, "B2": {"name": "H183/L072 VL V94I (antibody, name in Kabat numbering, V domains shown)", "VH": "B1 VH", "VL": "B1 VL with H99I"}, "B3": {"name": "H183/L072 VL V94K (antibody, name in Kabat numbering, V domains shown)", "VH": "B1 VH", "VL": "B1 VL with H99K"}, "B4": {"name": "H183/L072 VL V94L (antibody, name in Kabat numbering, V domains shown)", "VH": "B1 VH", "VL": "B1 VL with H99L"}, "B5": {"name": "H183/L072 VL V94M (antibody, name in Kabat numbering, V domains shown)", "VH": "B1 VH", "VL": "B1 VL with H99M"}, "B6": {"name": "H183/L072 VL V94N (antibody, name in Kabat numbering, V domains shown)", "VH": "B1 VH", "VL": "B1 VL with H99N"}, "B7": {"name": "H183/L072 VL V94P (antibody, name in Kabat numbering, V domains shown)", "VH": "B1 VH", "VL": "B1 VL with H99P"}, "B8": {"name": "H183/L072 VL V94Q (antibody, name in Kabat numbering, V domains shown)", "VH": "B1 VH", "VL": "B1 VL with H99Q"}, "B9": {"name": "H183/L072 VL V94R (antibody, name in Kabat numbering, V domains shown)", "VH": "B1 VH", "VL": "B1 VL with H99R"}, "B10": {"name": "H183/L072 VL V94S (antibody, name in Kabat numbering, V domains shown)", "VH": "B1 VH", "VL": "B1 VL with H99S"}, "B11": {"name": "H183/L072 VL V94T (antibody, name in Kabat numbering, V domains shown)", "VH": "B1 VH", "VL": "B1 VL with H99T"}, "B12": {"name": "H183/L072 VL Y32A (antibody, name in Kabat numbering, V domains shown)", "VH": "B1 VH", "VL": "B1 VL with Y37A, H99V"}, "B13": {"name": "H183/L072 VL Y32D (antibody, name in Kabat numbering, V domains shown)", "VH": "B1 VH", "VL": "B1 VL with Y37D, H99V"}, "B14": {"name": "H183/L072 VL Y32E (antibody, name in Kabat numbering, V domains shown)", "VH": "B1 VH", "VL": "B1 VL with Y37E, H99V"}, "B15": {"name": "H183/L072 VL Y32G (antibody, name in Kabat numbering, V domains shown)", "VH": "B1 VH", "VL": "B1 VL with Y37G, H99V"}, "B16": {"name": "H183/L072 VL Y32H (antibody, name in Kabat numbering, V domains shown)", "VH": "B1 VH", "VL": "B1 VL with Y37H, H99V"}, "B17": {"name": "H183/L072 VL Y32K (antibody, name in Kabat numbering, V domains shown)", "VH": "B1 VH", "VL": "B1 VL with Y37K, H99V"}, "B18": {"name": "H183/L072 VL Y32L (antibody, name in Kabat numbering, V domains shown)", "VH": "B1 VH", "VL": "B1 VL with Y37L, H99V"}, "B19": {"name": "H183/L072 VL Y32N (antibody, name in Kabat numbering, V domains shown)", "VH": "B1 VH", "VL": "B1 VL with Y37N, H99V"}, "B20": {"name": "H183/L072 VL Y32Q (antibody, name in Kabat numbering, V domains shown)", "VH": "B1 VH", "VL": "B1 VL with Y37Q, H99V"}, "B21": {"name": "H183/L072 VL Y32S (antibody, name in Kabat numbering, V domains shown)", "VH": "B1 VH", "VL": "B1 VL with Y37S, H99V"}, "B22": {"name": "H183/L072 VL Y32T (antibody, name in Kabat numbering, V domains shown)", "VH": "B1 VH", "VL": "B1 VL with Y37T, H99V"}, "B23": {"name": "H183/L072 VH F27A (antibody, name in Kabat numbering, V domains shown)", "VH": "B1 VH with F27A", "VL": "B1 VL with H99V"}, "B24": {"name": "H183/L072 VH A32E (antibody, name in Kabat numbering, V domains shown)", "VH": "B1 VH with A32E", "VL": "B1 VL with H99V"}, "B25": {"name": "H183/L072 VH A32F (antibody, name in Kabat numbering, V domains shown)", "VH": "B1 VH with A32F", "VL": "B1 VL with H99V"}, "B26": {"name": "H183/L072 VH A32G (antibody, name in Kabat numbering, V domains shown)", "VH": "B1 VH with A32G", "VL": "B1 VL with H99V"}, "B27": {"name": "H183/L072 VH A32H (antibody, name in Kabat numbering, V domains shown)", "VH": "B1 VH with A32H", "VL": "B1 VL with H99V"}, "B28": {"name": "H183/L072 VH A32I (antibody, name in Kabat numbering, V domains shown)", "VH": "B1 VH with A32I", "VL": "B1 VL with H99V"}, "B29": {"name": "H183/L072 VH A32K (antibody, name in Kabat numbering, V domains shown)", "VH": "B1 VH with A32K", "VL": "B1 VL with H99V"}, "B30": {"name": "H183/L072 VH A32L (antibody, name in Kabat numbering, V domains shown)", "VH": "B1 VH with A32L", "VL": "B1 VL with H99V"}, "B31": {"name": "H183/L072 VH A32M (antibody, name in Kabat numbering, V domains shown)", "VH": "B1 VH with A32M", "VL": "B1 VL with H99V"}, "B32": {"name": "H183/L072 VH A32N (antibody, name in Kabat numbering, V domains shown)", "VH": "B1 VH with A32N", "VL": "B1 VL with H99V"}, "B33": {"name": "H183/L072 VH A32Q (antibody, name in Kabat numbering, V domains shown)", "VH": "B1 VH with A32Q", "VL": "B1 VL with H99V"}, "B34": {"name": "H183/L072 VH A32R (antibody, name in Kabat numbering, V domains shown)", "VH": "B1 VH with A32R", "VL": "B1 VL with H99V"}, "B35": {"name": "H183/L072 VH A32S (antibody, name in Kabat numbering, V domains shown)", "VH": "B1 VH with A32S", "VL": "B1 VL with H99V"}, "B36": {"name": "H183/L072 VH A32T (antibody, name in Kabat numbering, V domains shown)", "VH": "B1 VH with A32T", "VL": "B1 VL with H99V"}, "B37": {"name": "H183/L072 VH A32V (antibody, name in Kabat numbering, V domains shown)", "VH": "B1 VH with A32V", "VL": "B1 VL with H99V"}, "B38": {"name": "H183/L072 VH A32Y (antibody, name in Kabat numbering, V domains shown)", "VH": "B1 VH with A32Y", "VL": "B1 VL with H99V"}, "B39": {"name": "H183/L072 VH A54D (antibody, name in Kabat numbering, V domains shown)", "VH": "B1 VH with A57D", "VL": "B1 VL with H99V"}, "B40": {"name": "H183/L072 VH A54E (antibody, name in Kabat numbering, V domains shown)", "VH": "B1 VH with A57E", "VL": "B1 VL with H99V"}, "B41": {"name": "H183/L072 VH A54F (antibody, name in Kabat numbering, V domains shown)", "VH": "B1 VH with A57F", "VL": "B1 VL with H99V"}, "B42": {"name": "H183/L072 VH A54H (antibody, name in Kabat numbering, V domains shown)", "VH": "B1 VH with A57H", "VL": "B1 VL with H99V"}, "B43": {"name": "H183/L072 VH A54I (antibody, name in Kabat numbering, V domains shown)", "VH": "B1 VH with A57I", "VL": "B1 VL with H99V"}, "B44": {"name": "H183/L072 VH A54K (antibody, name in Kabat numbering, V domains shown)", "VH": "B1 VH with A57K", "VL": "B1 VL with H99V"}, "B45": {"name": "H183/L072 VH A54L (antibody, name in Kabat numbering, V domains shown)", "VH": "B1 VH with A57L", "VL": "B1 VL with H99V"}}, "note": "Residue numbers refer to the chain shown, from its start. Numbers in names are those of the source."}
{"molecular_target": "T1, Human CD3eg linker (human)", "T1 construct": "Single-chain construct; also called recombinant human CD3", "T1 chain": "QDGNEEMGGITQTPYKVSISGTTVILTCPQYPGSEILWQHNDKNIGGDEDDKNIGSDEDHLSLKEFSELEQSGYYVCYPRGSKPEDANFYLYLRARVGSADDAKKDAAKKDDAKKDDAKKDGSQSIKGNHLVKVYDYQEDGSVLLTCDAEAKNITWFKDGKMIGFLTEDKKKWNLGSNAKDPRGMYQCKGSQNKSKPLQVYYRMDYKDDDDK", "test": "SPR; fold vs parent H183/L072", "units": {"fold change of affinity": "fold"}}
{"binder": "B1", "fold change of affinity": 0.8}
{"binder": "B2", "fold change of affinity": 0.8}
{"binder": "B3", "fold change of affinity": 0.4}
{"binder": "B4", "fold change of affinity": 0.3}
{"binder": "B5", "fold change of affinity": 0.8}
{"binder": "B6", "fold change of affinity": 0.9}
{"binder": "B7", "fold change of affinity": 1.5}
{"binder": "B8", "fold change of affinity": 1}
{"binder": "B9", "fold change of affinity": 0.5}
{"binder": "B10", "fold change of affinity": 0.7}
{"binder": "B11", "fold change of affinity": 1.3}
{"binder": "B12", "fold change of affinity": 0}
{"binder": "B13", "fold change of affinity": 0}
{"binder": "B14", "fold change of affinity": 0}
{"binder": "B15", "fold change of affinity": 0}
{"binder": "B16", "fold change of affinity": 0}
{"binder": "B17", "fold change of affinity": 0}
{"binder": "B18", "fold change of affinity": 0}
{"binder": "B19", "fold change of affinity": 0}
{"binder": "B20", "fold change of affinity": 0}
{"binder": "B21", "fold change of affinity": 0}
{"binder": "B22", "fold change of affinity": 0}
{"molecular_target": "T2, Human CD137 ECD (human)", "T2 construct": "also called 4-1BB", "T2 sequence (chain, as listed by the source limits assumed)": "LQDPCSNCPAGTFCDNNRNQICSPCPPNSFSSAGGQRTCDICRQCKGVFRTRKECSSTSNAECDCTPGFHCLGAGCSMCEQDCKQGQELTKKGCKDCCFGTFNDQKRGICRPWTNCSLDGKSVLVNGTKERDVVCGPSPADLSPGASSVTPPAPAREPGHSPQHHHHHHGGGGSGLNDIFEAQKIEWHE", "test": "single mutant vs template dBBDu183H", "units": {"fold change of affinity": "fold"}}
{"binder": "B23", "fold change of affinity": 0.3}
{"binder": "B24", "fold change of affinity": 0.4}
{"binder": "B25", "fold change of affinity": 0.1}
{"binder": "B26", "fold change of affinity": 0.1}
{"binder": "B27", "fold change of affinity": 0.2}
{"binder": "B28", "fold change of affinity": 2.2}
{"binder": "B29", "fold change of affinity": 1}
{"binder": "B30", "fold change of affinity": 1.2}
{"binder": "B31", "fold change of affinity": 1.6}
{"binder": "B32", "fold change of affinity": 0.3}
{"binder": "B33", "fold change of affinity": 1.6}
{"binder": "B34", "fold change of affinity": 0.3}
{"binder": "B35", "fold change of affinity": 0.9}
{"binder": "B36", "fold change of affinity": 3.9}
{"binder": "B37", "fold change of affinity": 3.7}
{"binder": "B38", "fold change of affinity": 0}
{"binder": "B39", "fold change of affinity": 1.1}
{"binder": "B40", "fold change of affinity": 1}
{"binder": "B41", "fold change of affinity": 0.9}
{"binder": "B42", "fold change of affinity": 1}
{"binder": "B43", "fold change of affinity": 0.5}
{"binder": "B44", "fold change of affinity": 0.9}
{"binder": "B45", "fold change of affinity": 1}
